# Test results taken from the DeepSol protein solubility set.
# Assay: soluble on expression in E. coli; label from the status in PepcDB or PDB records
row,Sequence,soluble on expression in E. coli
1,MAESVFAERIVQNLLDTDFYKLTMMQAVLHNYPNAEVEWEFRCRNAEDLRPYLAEIRYQIERLAEVEVTADQLAFLERIPFMKPDFIRFLSLFRFNLRYVHTGIEDGQLAIRLRGPWLHVILFEVPLLAIVSEVRNRYRYREVVLEQVGEQLYRKLDWLSAQASSEELAEFQVADFGTRRRFSYRTQEEVVHILKRDFPGRFVGTSNVHLAREYDLKPIGTMAHEWLMAHQQLGPRLVDSQQAALDCWVREYRGQLGIALTDCITMDAFLDDFDLYFAKLFDGLRHDSGDPLAWAEKAIAHYRRLGIDPLSKTLVFSDGLDMPKALQLFRALRGKINVSFGIGTNLTCDIPGVEPMNIVLKMTACNGHPVAKISDAPGKTQCRDENFVAYLRHVFNVPA,not soluble
2,MAETFKIRKLEISDKRKGFIELLGQLTVTGSVTDEEFDRRFEEIRSYGDDHVICVIEEETSGKIAATGSVMIEKKFLRNCGKAGHIEDVVVDSRFRGKQLGKKVVEFLMDHCKSMGCYKVILDCSVENKVFYEKCGMSNKSIQMSKYFD,soluble
3,MAETTPKVKGHVVILPYPVQGHLNPMVQFAKRLVSKNVKVTIATTTYTASSITTPSLSVEPISDGFDFIPIGIPGFSVDTYSESFKLNGSETLTLLIEKFKSTDSPIDCLIYDSFLPWGLEVARSMELSAASFFTNNLTVCSVLRKFSNGDFPLPADPNSAPFRIRGLPSLSYDELPSFVGRHWLTHPEHGRVLLNQFPNHENADWLFVNGFEGLEETQDCENGESDAMKATLIGPMIPSAYLDDRMEDDKDYGASLLKPISKECMEWLETKQAQSVAFVSFGSFGILFEKQLAEVAIALQESDLNFLWVIKEAHIAKLPEGFVESTKDRALLVSWCNQLEVLAHESIGCFLTHCGWNSTLEGLSLGVPMVGVPQWSDQMNDAKFVEEVWKVGYRAKEEAGEVIVKSEELVRCLKGVMEGESSVKIRESSKKWKDLAVKAMSEGGSSDRSINEFIESLGK,soluble
4,MAEVKKKIKPGAIEAHAEELAIVVHYEVQEVSTQSDGSQKVISKEPGEKKISVKSLSEKTNVPLLATEIIEKCKLIHPSKAGQVEELLYQLQSRGGGGGADAKAKPAAKPAAASPAKSAAAAPPPPSNVAQSPQKPGQPPSTPSKKPPAAAGAPAPMLNGKPAPKAQSRLDAEAEERADLQARRQAQAMQIFKMQQKQYEQAYMNKLDEYIEGLYEEEMPKKVRATGMIAQLFRNTENFEVLLSHETLMQTLSRVLREDGKRSIDLCTNIISVFFSVSNFTQFHGLIMQNQVGALTMDLIDLEIKRTEHRASEENISPAMVAQKALEASQGQVTLSEREKKLLALIQKQDRLLYIAFYMLLNLSEDIEVERKMKKKNIVVYLVKMLERSNVELLILATTFLKKLSIYKENKETMSSCKIVEKLMKFVPVLNDVLLMSVLRLLHNLSFDHSLRDDMVKHGLIPKAVELMMVPRFQPVVLGLLYHISMEDKYKSLFTFTDCLNKMYDMLMRVQADLRNTPELIALAVNLTQNPRNAETMCEGDRFDKMMRRAFQTCDELMFKVLRNLSQQEGINIKRRFGPYVEQLVTLLRAPDITAELFVEVLGCLANLYIPEFDFLGLVRKHDLLTFLATYAQPGAVDDDILLEVVMFVGVLCNEGTAPLIVSSGLVTTLFQLMGDKKEDDEFVLQIAFTFHKFLLHDETRASLLTNTQQVVFYLVDLLQDKNKEVRRVADQCLDIIMDTDEEWAVQIRNLKFESFNQEWLDVVSQPAGGMAAHAGRQRNGYDDETEVDYSGGDGYYNIGDQRLVADFDDLGTNGGTWGPGDEGLQGGYEGNYDGYDEEELRQGYAM,not soluble
5,MAEYKFYYFNGRGLGDVSRQLFALSGTKYEDIRIEHADWPAQKPKMPFGQMPVLELSSGLQIPQSMAIARYLAKKFGYAGKTDEEAALADALIDQFKDFYAEIKPYYYAKIGVLQNDTEEEKKKTLIPARDKFLTIIGKFLKLSISGFLFSGGLTYADLMICDNMRTLIAWWPEYLNEYPDIKAWYQKVDGIPEIRKHLESSPDKGF,soluble
6,MAFEFKLPDIGEGIHEGEIVKWFIKPGDEVNEDDVLLEVQNDKAVVEIPSPVKGKVLEVLVEEGTVAVVGDTLIKFDAPGYENLKFKGDDHDEAPKAEATPAATAEVVNERVIAMPSVRKYARENGVDIHKVAGSGKNGRIVKADIDAFANGGQAVAATEAPAAVEATPAAAKEEAPKAQPIPAGEYPETREKMSGIRKAIAKAMVNSKHTAPHVTLMDEVDVTELVAHRKKFKAVAADKGIKLTYLPYVVKALTSALREYPMLNTSLDDASQEVVHKHYFNIGIAADTDKGLLVPVVKDTDRKSIFTISNEINDLAGKAREGRLAPAEMKGASCTITNIGSAGGQWFTPVINHPEVAILGIGRIAEKPVVKNGEIVAAPVLALSLSFDHRLIDGATAQKALNQIKRLLNDPQLLVMEA,not soluble
7,MAFKDTFNKMISYFDTDEVNEVEEDVAASTDNVIPRSQQSVRASSHPKQEPRNNHVQQDHQARSQEQTRSQMHPKHGTSERYYQQSQPKEGHEMVDRRKRMSTSGIANRREQYQQSTCSDQTTIALKYPRKYEDAQEIVDLLIVNECVLIDFQFMLDAQARRCLDFIDGASKVLYGSLQKVGSSMYLLAPSNVSVNIEEMTIPHTTQDIGFDFDMKRRLEHHHHHH,not soluble
8,MAFKSDVIFEEIKERIATDKEMVKKVGTSFRMTIAGADGKTKVWTIDAKSDTPYVGDDSSRPVEIEINIKDSDFIAIAAGKMKPDQAFMQGKMKLKGNIAKAMKLRTILDPKMLKAKL,soluble
9,MAFLDNPTIILAHIRQSHVTSDDTGMCEMVLIDHDVDLEKIHPPSMPGDSGSEIQGSNGETQGYVYAQSVDITSSWDFGIRRRSNTAQRLERLRKERQNQIKCKNIQWKERNSKQSAQELKSLFEKKSLKEKPPISGKQSILSVRLEQCPLQLNNPFNEYSKFDGKGHVGTTATKKIDVYLPLHSSQDRLLPMTVVTMASARVQDLIGLICWQYTSEGREPKLNDNVSAYCLHIAEDDGEVDTDFPPLDSNEPIHKFGFSTLALVEKYSSPGLTSKESLFVRINAAHGFSLIQVDNTKVTMKEILLKAVKRRKGSQKVSGSRADGVFEEDSQIDIATVQDMLSSHHYKSFKVSMIHRLRFTTDVQLGISGDKVEIDPVTNQKASTKFWIKQKPISIDSDLLCACDLAEEKSPSHAIFKLTYLSNHDYKHLYFESDAATVNEIVLKVNYILESRASTARADYFAQKQRKLNRRTSFSFQKEKKSGQQ,soluble
10,MAFNTPTLSTLIKQGEQQFQYRFPTLKRHNVIGVINRICAALSAGEHMHLDWLARQIIPTTAEEDYLIEYCLYKGIVRKQASTATGLVTVTAANDTTIPAGTVFEDTNTGLTFITTQETVVKAGTADIAVKCETTGVEGNLKAGTSLSLTSAILGLLPTATVKVMSGGADIESLSRLLARLIYRVQYPPAGGASHDYIRWATEVPGVTRAWCFERYYGGGTVGVAFACDEREDILPTPEDIARVRAYIEGHKNEVTGQFEGMPANVELYVFAPQFQAVNFKIRLAPNTPTLRQAVRKSLAAYLANAGVGALLYLSQIRATVSNTAGEVDNSVIFPTADVQLLSDNIAILGDIEWL,not soluble
11,MAFRKRRHDSEGDSDEERLPINKDEDEDLKAEPAKKSKNMWSDMLLEEQLLEKGQQINLDRTSRKQPNVSRGPESYLMPQDEFQRKQSRNANQKKKNEVFDKPVVLVTPASDDLFGDAPSALNEDFGVKKNDVKLPKDDEAGWWGKKGANKRYNDRMGYHSGGPRQPYPRKTTGQLMASEYSLESMVAAEFAPNLSTKELGTQMAAAMGEKDPDTVKKITNAIGSELSIKLFNETKEIEQNGGMKTADGSRRRTPGGVFITLFKMDSSVSREIKDGIFGDMRNAEKERTKKKKGEKQFTRQLEDMKKTMELAAQAETDLANEEQLATAVDAPFSDDAVDMV,not soluble
12,MAFSAPEPELSVVVPTLNEAETVATLLAALAAQRDVALELLLCDGGSTDGTAALVRGRAGDLPFPVTVTETPPGRGRQMNAGAAAARGATFLFLHADSIIADPLALRRGLDHLAAARRSDKRAAGHFRLRFAGDSPSPLAYRFYERKARLHRPGCTHGDQGLLIPREFFDQVGPFDEGLPILEDVRLAERIAAMGTWVLLPAEIITSARRFETEGLRERQTLNAILMNFAAIGWQQGVEELVAGYRSQDRSGRLRLGPHLARIAGLTAALPRQERLRLWYLTGGYVRGNAWQIPLFLDVRNAWRRGGDDGATPLLSLHDRWFDLLTDNPAGRAAAALMTFLWFRLTLRREMKDWPGILRTPLEHHHHHH,not soluble
13,MAGDPMAYQQGKQGQNVEKESTRQQETKPIHVKDTTQETKDNGTRTDIAKHLVSVAEKNPDVKDATAVVLGGYAVVGIDVDDTLDRSKVETIKYSVAQALKNDRYGANAVVIADPDTVSRLREMSREISEGHPVTGILDELAAIVGRVLPEVPNDVIDNEDEPQTKQQNDQLNRKQQQEMEKEQNDQSDHHMKKNNNDLEHHHHHH,soluble
14,MAGDPMGTLKLIQYPSQLLSLTISDIINKQNLSQLIQKSKKDDSENWEGKDWIIKNTPQQGINWIGEHPNIKAVIIKTKDGSYADDGWKNNEKTIYSYSFKAAKGIINFNDSANRVLINQPISNYPILLFTDSSNKWEFQGCFKIIDILEKAVILEKMISFPSLNDKNSDNDDVILYKNEHTEGKIKYITHMLSERNRKIIDEIKDNSQWVCDICEIKFLDKYGKNYIEAHHKIPIHTFTGEHRILKTDFALLCPNCHKAVHIYLREENLQYEEAKIKIRNILKRLEHHHHHH,not soluble
15,MAGDPMKVAFITLGCRVNSYESEAMAEKFIKSGWEIVDNDEKADAYVINTCTVTNMGDRKSRQMISRARKANKDAVIAAVGCYSQVEPEKVAEIEGVDIVLGTKNKGDIIHYVNKFIEERNQIVNVKDVFTDKKFEDLNIDEYQDKTRAFLKIQDGCNRFCSYCLIPYARGGVCSKNPEKVIGEIKRLAEHGFKEIILSGIHIASYGDDLKGDWNLISIIEKAEQIDGIERIRIGSIEPRFFDEDTISKIKNMKKMCPHFHLSLQSGCTETLERMNRKYTAEEYKEIVYKLRENISDVSITTDVIVGFPGETDEEFEKTYDFLKEIELAKMHVFKYSPREGTKAAAMKNQINGNVKDKRSAELIELDKINEKKFMSKFLDREMDVLFEKKLEENEDLYEGYTPNYIKVVVKSSEDISRKILKVKLTEIQDEHLLGELILYKLEHHHHHH,soluble
16,MAGDPMNEEQRKASSVDVLAERDKKAEKDYSKYFEHVYQPPNLKEAKKRGKQEVRYNRDFQIDEKYRGMGNERTFLIKTYGCQMNAHDTEVIAGILEALGYQATTDINTADVILINTCAIRENAENKVFSEIGNLKHLKKERPDILIGVCGCMSQEESVVNKILKSYQNVDMIFGTHNIHHLPEILEEAYLSKAMVVEVWSKEGDVIENLPKVREGNIKAWVNIMYGCDKFCTYCIVPFTRGKERSRRPEDIIDEVRELAREGYKEITLLGQNVNSYGKDLQDIEYDLGDLLQAISKIAIPRVRFTTSHPWDFTDHMIDVISEGGNIVPHIHLPVQSGNNAVLKIMGRKYTRESYLDLVKRIKDRIPNVALTTDIIVGYPNESEEQFEETLTLYDEVGFEHAYTYLYSQRDGTPAAKMKDNVPLNVKKERLQRLNKKVGHYSQIAMSKYEGQTVTVLCEGSSKKDDQVLAGYTDKNKLVNFKAPKEMIGKLVEVRIDEAKQYSLNGSFVKEVEPEMVIQLEHHHHHH,soluble
17,MAGDPMNNNSKNNSRNVVTMNQASQSYAAQESSKMCLFEPRVFSDTQDIADELKNRRATLVNLQRIDQVSAKRIIDFLSGTVYAIGGDIQRVGTDIFLCTPDNVEVAGSITDHIENMEQHYELEHHHHHH,not soluble
18,MAGDPMSGSKTSAEKKESETEKSSDIAQVKIKDVSYTLPSKYDKSTSDDQLVLKVNVAVKNTGKDPLNVDSMDFTLYQGDTKMSDTDPEDYSEKLQGSTINADKSVEGNLFFVVDKGKQYELNYTPESYGDKKPKSVTFKIDGKDKKILATADKLQDSAKALSAYVDVLLFGKDNADFEKITGANKNEIVNDFNESAKDGYLSASGLSSTYADSKALDNIVNGIKEGLSKNSSIQAKTTSISKDEAIVEATVKPVDASSLSDRIEDKVKDYYSKNSSASYEEAVKYALQVYPEEFKKLGPASSEKTVEVKMKKNDIDQWQLDMDDYRAAELVEAFIKELEHHHHHH,soluble
